Molecular target: flt3_human FLT3 (UniProt P36888)
Sequence (P36888 whole entry): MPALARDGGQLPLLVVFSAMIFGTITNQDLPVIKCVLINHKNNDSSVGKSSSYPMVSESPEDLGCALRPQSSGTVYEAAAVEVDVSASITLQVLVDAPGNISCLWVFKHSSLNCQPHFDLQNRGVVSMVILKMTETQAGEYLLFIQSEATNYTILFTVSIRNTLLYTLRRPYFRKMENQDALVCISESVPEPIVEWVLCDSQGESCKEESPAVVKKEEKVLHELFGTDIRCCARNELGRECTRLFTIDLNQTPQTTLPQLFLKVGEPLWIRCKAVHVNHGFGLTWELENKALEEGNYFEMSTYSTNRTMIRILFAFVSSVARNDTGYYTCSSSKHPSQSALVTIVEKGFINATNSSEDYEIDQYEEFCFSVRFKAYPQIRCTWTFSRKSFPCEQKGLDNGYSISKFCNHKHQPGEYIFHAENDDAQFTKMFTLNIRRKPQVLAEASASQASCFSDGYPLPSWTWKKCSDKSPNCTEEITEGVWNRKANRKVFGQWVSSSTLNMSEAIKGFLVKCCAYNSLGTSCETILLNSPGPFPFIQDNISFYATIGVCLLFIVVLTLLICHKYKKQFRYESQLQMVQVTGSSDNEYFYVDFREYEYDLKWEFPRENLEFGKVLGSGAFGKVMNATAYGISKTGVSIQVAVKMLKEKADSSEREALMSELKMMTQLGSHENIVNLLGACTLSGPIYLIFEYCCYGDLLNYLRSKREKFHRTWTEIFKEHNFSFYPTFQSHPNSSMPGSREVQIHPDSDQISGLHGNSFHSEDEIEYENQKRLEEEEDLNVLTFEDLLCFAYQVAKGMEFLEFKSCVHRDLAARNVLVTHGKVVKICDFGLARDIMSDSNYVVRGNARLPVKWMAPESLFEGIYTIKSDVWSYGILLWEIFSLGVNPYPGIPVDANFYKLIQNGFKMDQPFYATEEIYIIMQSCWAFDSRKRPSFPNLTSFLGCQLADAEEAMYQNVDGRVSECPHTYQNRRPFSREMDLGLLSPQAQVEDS

Tyrosine-protein kinase SYK (Homo sapiens) (from UniProt P43405) R195G;R197L
effect of a mutation on the interaction: decreasing interaction

From IntAct's records for PubMed 24525236
